Measurements: the supplement of paper PMC9112550, “Optimization of the antimicrobial peptide Bac7 by deep mutational scanning” (BMC Biology, 2022)

System: Escherichia coli TOP10
Experiment: shrunken log2 fold change of peptide-encoding DNA abundance (4.5 h post-induction vs induction); higher = less antimicrobial activity (less host growth inhibition)
Conditions: time post-induction: 4.5 h; library: site-saturation at positions 5, 18, 19, 20
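Note: peptides expressed intracellularly from a pBAD plasmid library in pooled LB shake-flask culture, induced with 0.3% L-arabinose, DNA abundance read by NGS, three biological replicates, DESeq2 with apeglm shrinkage.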

Sequence	shrunken log2 fold change
RRIRQRPPRLPRPRPRPQWVPRP	0.0126
RRIRQRPPRLPRPRPRPRAWPRP	0.123
RRIRQRPPRLPRPRPRPRCGPRP	0.236
RRIRQRPPRLPRPRPRPREGPRP	0.151
RRIRQRPPRLPRPRPRPRFKPRP	-0.128
RRIRQRPPRLPRPRPRPRGDPRP	0.346
RRIRQRPPRLPRPRPRPRGSPRP	0.0908
RRIRQRPPRLPRPRPRPRIAPRP	0.111
RRIRQRPPRLPRPRPRPRIIPRP	0.00299
RRIRQRPPRLPRPRPRPRIMPRP	-0.0396
RRIRQRPPRLPRPRPRPRIYPRP	-0.159
RRIRQRPPRLPRPRPRPRKDPRP	-0.16
RRIRQRPPRLPRPRPRPRKVPRP	-0.00271
RRIRQRPPRLPRPRPRPRKYPRP	-0.2
RRIRQRPPRLPRPRPRPRLIPRP	-0.076
RRIRQRPPRLPRPRPRPRNGPRP	-0.0342
RRIRQRPPRLPRPRPRPRPQPRP	0.262
RRIRQRPPRLPRPRPRPRPYPRP	-0.357
RRIRQRPPRLPRPRPRPRQCPRP	0.152
RRIRQRPPRLPRPRPRPRRIPRP	-0.27
RRIRQRPPRLPRPRPRPRSIPRP	-0.0928
RRIRQRPPRLPRPRPRPRSKPRP	0.185
RRIRQRPPRLPRPRPRPRSMPRP	0.33
RRIRQRPPRLPRPRPRPRTDPRP	0.00812
RRIRQRPPRLPRPRPRPRTVPRP	0.349

Sequence	shrunken log2 fold change
RRIRQRPPRLPRPRPRPRWYPRP	-0.172
RRIRQRPPRLPRPRPRPSAFPRP	-0.247
RRIRQRPPRLPRPRPRPSCAPRP	-0.0664
RRIRQRPPRLPRPRPRPSCDPRP	0.0694
RRIRQRPPRLPRPRPRPSDHPRP	-0.298
RRIRQRPPRLPRPRPRPSDLPRP	-0.333
RRIRQRPPRLPRPRPRPSEDPRP	-0.0593
RRIRQRPPRLPRPRPRPSIMPRP	-0.0993
RRIRQRPPRLPRPRPRPSLAPRP	0.404
RRIRQRPPRLPRPRPRPSMLPRP	-0.522
RRIRQRPPRLPRPRPRPSPQPRP	0.548
RRIRQRPPRLPRPRPRPSQCPRP	-0.0618
RRIRQRPPRLPRPRPRPSSIPRP	-0.0146
RRIRQRPPRLPRPRPRPSSKPRP	-0.623
RRIRQRPPRLPRPRPRPSTCPRP	-0.0113
RRIRQRPPRLPRPRPRPSTYPRP	-0.884
RRIRQRPPRLPRPRPRPSVMPRP	-0.283
RRIRQRPPRLPRPRPRPSWEPRP	-0.141
RRIRQRPPRLPRPRPRPSWHPRP	-0.155
RRIRQRPPRLPRPRPRPSYKPRP	-0.54
RRIRQRPPRLPRPRPRPSYPPRP	-0.857
RRIRQRPPRLPRPRPRPTAGPRP	0.144
RRIRQRPPRLPRPRPRPTCHPRP	-0.552
RRIRQRPPRLPRPRPRPTCWPRP	0.0954
RRIRQRPPRLPRPRPRPTDFPRP	-0.122

Sequence	shrunken log2 fold change
RRIRQRPPRLPRPRPRPTEIPRP	-0.223
RRIRQRPPRLPRPRPRPTELPRP	0.124
RRIRQRPPRLPRPRPRPTFTPRP	-0.222
RRIRQRPPRLPRPRPRPTGNPRP	-0.0862
RRIRQRPPRLPRPRPRPTHGPRP	0.0759
RRIRQRPPRLPRPRPRPTIAPRP	0.0737
RRIRQRPPRLPRPRPRPTIMPRP	-0.127
RRIRQRPPRLPRPRPRPTIVPRP	-0.119
RRIRQRPPRLPRPRPRPTKSPRP	0.00581
RRIRQRPPRLPRPRPRPTLEPRP	0.0818
RRIRQRPPRLPRPRPRPTLFPRP	0.12
RRIRQRPPRLPRPRPRPTLLPRP	-0.0944
RRIRQRPPRLPRPRPRPTLTPRP	0.0596
RRIRQRPPRLPRPRPRPTMDPRP	0.0884
RRIRQRPPRLPRPRPRPTPGPRP	0.417
RRIRQRPPRLPRPRPRPTQYPRP	-0.0342
RRIRQRPPRLPRPRPRPTRGPRP	0.287
RRIRQRPPRLPRPRPRPTSMPRP	-0.049
RRIRQRPPRLPRPRPRPTVDPRP	0.349
RRIRQRPPRLPRPRPRPTWIPRP	-0.057
RRIRQRPPRLPRPRPRPTWLPRP	0.295
RRIRQRPPRLPRPRPRPTYCPRP	-0.0981
RRIRQRPPRLPRPRPRPTYKPRP	-0.549
RRIRQRPPRLPRPRPRPTYVPRP	-0.161
RRIRQRPPRLPRPRPRPVAVPRP	0.257

Sequence	shrunken log2 fold change
RRIRQRPPRLPRPRPRPVCTPRP	0.0864
RRIRQRPPRLPRPRPRPVDFPRP	0.0196
RRIRQRPPRLPRPRPRPVFTPRP	-0.217
RRIRQRPPRLPRPRPRPVGNPRP	-0.108
RRIRQRPPRLPRPRPRPVGTPRP	-0.0913
RRIRQRPPRLPRPRPRPVHEPRP	0.536
RRIRQRPPRLPRPRPRPVHHPRP	0.04
RRIRQRPPRLPRPRPRPVHTPRP	-0.168
RRIRQRPPRLPRPRPRPVIAPRP	0.248
RRIRQRPPRLPRPRPRPVIDPRP	-0.016
RRIRQRPPRLPRPRPRPVIGPRP	-0.0941
RRIRQRPPRLPRPRPRPVITPRP	-0.414
RRIRQRPPRLPRPRPRPVKNPRP	0.142
RRIRQRPPRLPRPRPRPVLAPRP	0.232
RRIRQRPPRLPRPRPRPVMPPRP	0.0623
RRIRQRPPRLPRPRPRPVNPPRP	-0.085
RRIRQRPPRLPRPRPRPVPCPRP	0.0476
RRIRQRPPRLPRPRPRPVQFPRP	-0.0919
RRIRQRPPRLPRPRPRPVQPPRP	0.0898
RRIRQRPPRLPRPRPRPVTCPRP	0.0138
RRIRQRPPRLPRPRPRPVVAPRP	0.174
RRIRQRPPRLPRPRPRPVVFPRP	1.25
RRIRQRPPRLPRPRPRPVVYPRP	0.12
RRIRQRPPRLPRPRPRPVWWPRP	0.015
RRIRQRPPRLPRPRPRPVYQPRP	-0.022

Sequence	shrunken log2 fold change
RRIRQRPPRLPRPRPRPWFFPRP	-0.0396
RRIRQRPPRLPRPRPRPWFIPRP	-0.302
RRIRQRPPRLPRPRPRPWGAPRP	0.351
RRIRQRPPRLPRPRPRPWGNPRP	0.0303
RRIRQRPPRLPRPRPRPWGSPRP	-0.0209
RRIRQRPPRLPRPRPRPWHPPRP	-0.0543
RRIRQRPPRLPRPRPRPWIVPRP	-0.0927
RRIRQRPPRLPRPRPRPWKTPRP	-0.0168
RRIRQRPPRLPRPRPRPWMCPRP	0.00702
RRIRQRPPRLPRPRPRPWPDPRP	-0.0854
RRIRQRPPRLPRPRPRPWPLPRP	-0.0625
RRIRQRPPRLPRPRPRPWQQPRP	-0.333
RRIRQRPPRLPRPRPRPWQRPRP	-0.0557
RRIRQRPPRLPRPRPRPWRDPRP	0.19
RRIRQRPPRLPRPRPRPWTAPRP	-0.264
RRIRQRPPRLPRPRPRPWTEPRP	0.0355
RRIRQRPPRLPRPRPRPWVEPRP	0.0249
RRIRQRPPRLPRPRPRPWVHPRP	-0.0494
RRIRQRPPRLPRPRPRPWVLPRP	0.0639
RRIRQRPPRLPRPRPRPWYIPRP	-0.0906
RRIRQRPPRLPRPRPRPYCNPRP	-1.38
RRIRQRPPRLPRPRPRPYEKPRP	-0.0946
RRIRQRPPRLPRPRPRPYFCPRP	-0.396
RRIRQRPPRLPRPRPRPYFKPRP	-0.454
RRIRQRPPRLPRPRPRPYGVPRP	-0.0132

Sequence	shrunken log2 fold change
RRIRQRPPRLPRPRPRPYHHPRP	-0.186
RRIRQRPPRLPRPRPRPYHLPRP	-0.00174
RRIRQRPPRLPRPRPRPYICPRP	-0.102
RRIRQRPPRLPRPRPRPYIIPRP	-0.332
RRIRQRPPRLPRPRPRPYKLPRP	-0.603
RRIRQRPPRLPRPRPRPYLDPRP	-0.286
RRIRQRPPRLPRPRPRPYLHPRP	-0.117
RRIRQRPPRLPRPRPRPYLYPRP	-0.838
RRIRQRPPRLPRPRPRPYMGPRP	-0.00992
RRIRQRPPRLPRPRPRPYNHPRP	-0.047
RRIRQRPPRLPRPRPRPYQFPRP	-0.168
RRIRQRPPRLPRPRPRPYQIPRP	-0.227
RRIRQRPPRLPRPRPRPYQLPRP	-0.00448
RRIRQRPPRLPRPRPRPYQPPRP	-0.0272
RRIRQRPPRLPRPRPRPYSNPRP	-0.0703
RRIRQRPPRLPRPRPRPYVDPRP	-0.431
RRIRQRPPRLPRPRPRPYWVPRP	-0.264
RRIRQRPPRLPRPRPRPYYRPRP	-0.124
RRIRRRPPRLPRPRPRPAAGPRP	0.326
RRIRRRPPRLPRPRPRPAARPRP	0.287
RRIRRRPPRLPRPRPRPACAPRP	0.727
RRIRRRPPRLPRPRPRPACVPRP	0.451
RRIRRRPPRLPRPRPRPADIPRP	-0.0589
RRIRRRPPRLPRPRPRPAELPRP	-0.0392
RRIRRRPPRLPRPRPRPAENPRP	0.0557
